B1: glmS ribozyme (parent)
chain: AUAAAAGCGCCAGAACUACAGAAAUGUAGUUGACGAGGAGGAGGUUUAUCGAAUUUUCGGCGGAUGCCUCCAAA

± gives the standard error. For part of these data: Variants at the floor of the assay were thinned out.

Common to all, as to details: with glucosamine-6-phosphate
Data set [1] covers variants of B1. In words: kcat; higher = faster cleavage; RNA array. The method in brief:
(§1)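 In situ transcription by E. coli RNA polymerase produced barcoded ribozyme variants on sequenced MiSeq chips, and a hybridised Cy3 probe tracked them at 37 °C. Glucosamine-6-phosphate was flowed in at 40 μM to 10 mM in HEPES/KCl/Mg(OAc)2 buffer. kcat and KM were taken from weighted Michaelis–Menten fits of kobs values from exponential decay fits.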

The variants in data set [2] derive from B1. In words: KM; higher = weaker cofactor use; RNA array. The method, boiled down: as §1
Variants of B1 are the subject of data set [3]. The data set can be described thus: self-cleavage kobs at 160 uM GlcN6P; higher = faster cleavage; RNA array. The method, boiled down: as §1
In data set [4] the parent is B1. In words: self-cleavage kobs at 640 uM GlcN6P; higher = faster cleavage; RNA array. The method in brief:
as §1

Data set [5] covers variants of B1. In words: self-cleavage kobs at 2500 uM GlcN6P; higher = faster cleavage; RNA array. The method, boiled down:
as §1

The variants in data set [6] derive from B1. In words: self-cleavage kobs at 10000 uM GlcN6P; higher = faster cleavage; RNA array. The method in brief: as §1
Data set [7] covers variants of B1. In words: self-cleavage kobs at 40 uM GlcN6P; higher = faster cleavage; RNA array. The method in brief: as §1

What is called kcat is the maximal rate divided by the concentration of active sites. The KM is the concentration of substrate that gives half-maximal velocity. As for C16A C67U, the kcat with glucosamine-6-phosphate [1] came to 0.000302 ± 4.6e-05 s⁻¹. For the same variant, the KM with glucosamine-6-phosphate [2] came out at 782 ± 280 µM. For the same variant, in the data set with glucosamine-6-phosphate [3], the “self-cleavage kobs at 160 uM GlcN6P” value stood at 6.4e-05 ± 1.4e-05 s⁻¹. The “self-cleavage kobs at 640 uM GlcN6P” value with glucosamine-6-phosphate [4] came out at 0.000122 ± 1.3e-05 s⁻¹. Besides, in the data set with glucosamine-6-phosphate [5], the “self-cleavage kobs at 2500 uM GlcN6P” value worked out at 0.000286 ± 3.2e-05 s⁻¹. Besides, in the data set with glucosamine-6-phosphate [6], the “self-cleavage kobs at 10000 uM GlcN6P” value was determined as 0.000261 ± 3.1e-05 s⁻¹.

Turning to A39U C67A, the catalytic constant (kcat) with glucosamine-6-phosphate [1] stood at 0.00981 ± 0.0028 s⁻¹. In addition, the KM in the data set with glucosamine-6-phosphate [2] amounted to 2330 ± 910 µM. For the same variant, the “self-cleavage kobs at 40 uM GlcN6P” value with glucosamine-6-phosphate [7] worked out at 0.000197 ± 2.5e-05 s⁻¹. Also, the “self-cleavage kobs at 160 uM GlcN6P” value in the data set with glucosamine-6-phosphate [3] came out at 0.000759 ± 0.00012 s⁻¹. Also, the “self-cleavage kobs at 640 uM GlcN6P” value with glucosamine-6-phosphate [4] came out at 0.0015 ± 0.00027 s⁻¹. Further, the “self-cleavage kobs at 2500 uM GlcN6P” value in the data set with glucosamine-6-phosphate [5] is 0.00477 ± 0.0011 s⁻¹. Also, the “self-cleavage kobs at 10000 uM GlcN6P” value with glucosamine-6-phosphate [6] came to 0.00878 ± 0.0012 s⁻¹.

With G13C A42G, in the data set with glucosamine-6-phosphate [1], the kcat was found to be 0.00017 ± 1.8e-05 s⁻¹. For the same variant, in the data set with glucosamine-6-phosphate [2], the KM was 4030 ± 920 µM. Further, the “self-cleavage kobs at 40 uM GlcN6P” value with glucosamine-6-phosphate [7] is less than 1e-05 s⁻¹. The “self-cleavage kobs at 640 uM GlcN6P” value with glucosamine-6-phosphate [4] is 3.16e-05 ± 1.6e-05 s⁻¹. Besides, in the data set with glucosamine-6-phosphate [5], the “self-cleavage kobs at 2500 uM GlcN6P” value came to 6.19e-05 ± 1.3e-05 s⁻¹. Further, the “self-cleavage kobs at 10000 uM GlcN6P” value with glucosamine-6-phosphate [6] was 0.000123 ± 1.8e-05 s⁻¹.

Turning to G9U U31C, the kcat with glucosamine-6-phosphate [1] was less than 1e-05 s⁻¹. Further, the “self-cleavage kobs at 640 uM GlcN6P” value with glucosamine-6-phosphate [4] was less than 1e-05 s⁻¹. For the same variant, in the data set with glucosamine-6-phosphate [6], the “self-cleavage kobs at 10000 uM GlcN6P” value is less than 1e-05 s⁻¹.

Turning to G32C C61G, the kcat with glucosamine-6-phosphate [1] was less than 1e-05 s⁻¹. Also, the “self-cleavage kobs at 40 uM GlcN6P” value with glucosamine-6-phosphate [7] is less than 1e-05 s⁻¹. Moreover, the “self-cleavage kobs at 640 uM GlcN6P” value in the data set with glucosamine-6-phosphate [4] was less than 1e-05 s⁻¹.

Take C16A U57A: the kcat in the data set with glucosamine-6-phosphate [1] worked out at 2.09e-05 ± 4.3e-06 s⁻¹. Besides, the “self-cleavage kobs at 40 uM GlcN6P” value with glucosamine-6-phosphate [7] is less than 1e-05 s⁻¹. For the same variant, the “self-cleavage kobs at 160 uM GlcN6P” value with glucosamine-6-phosphate [3] is less than 1e-05 s⁻¹.

As for G13U G59U C67U, the turnover number (kcat) with glucosamine-6-phosphate [1] was 1.71e-05 ± 6.1e-06 s⁻¹.

G40A U54C: the catalytic constant (kcat) in the data set with glucosamine-6-phosphate [1] was 0.00522 ± 0.00053 s⁻¹. Moreover, the Michaelis constant (KM) with glucosamine-6-phosphate [2] came out at 908 ± 140 µM. Besides, in the data set with glucosamine-6-phosphate [7], the “self-cleavage kobs at 40 uM GlcN6P” value is 0.000248 ± 5.6e-05 s⁻¹. In addition, the “self-cleavage kobs at 160 uM GlcN6P” value with glucosamine-6-phosphate [3] turned out to be 0.000724 ± 0.00016 s⁻¹. The “self-cleavage kobs at 640 uM GlcN6P” value with glucosamine-6-phosphate [4] turned out to be 0.00211 ± 0.0003 s⁻¹. For the same variant, the “self-cleavage kobs at 2500 uM GlcN6P” value with glucosamine-6-phosphate [5] came out at 0.00449 ± 0.0013 s⁻¹. For the same variant, the “self-cleavage kobs at 10000 uM GlcN6P” value with glucosamine-6-phosphate [6] is 0.00467 ± 0.0012 s⁻¹.

As for A15U A53U, the kcat in the data set with glucosamine-6-phosphate [1] turned out to be 0.00543 ± 0.0013 s⁻¹. Further, in the data set with glucosamine-6-phosphate [2], the KM worked out at 2950 ± 940 µM. The “self-cleavage kobs at 40 uM GlcN6P” value with glucosamine-6-phosphate [7] is 9.26e-05 ± 9.9e-06 s⁻¹. The “self-cleavage kobs at 160 uM GlcN6P” value with glucosamine-6-phosphate [3] worked out at 0.000245 ± 3.8e-05 s⁻¹. For the same variant, the “self-cleavage kobs at 640 uM GlcN6P” value in the data set with glucosamine-6-phosphate [4] was determined as 0.000755 ± 0.00012 s⁻¹. Further, the “self-cleavage kobs at 2500 uM GlcN6P” value with glucosamine-6-phosphate [5] worked out at 0.00314 ± 0.00055 s⁻¹. The “self-cleavage kobs at 10000 uM GlcN6P” value with glucosamine-6-phosphate [6] is 0.0042 ± 0.00042 s⁻¹.

Turning to A15C U31G, the kcat with glucosamine-6-phosphate [1] was determined as 0.00453 ± 0.0018 s⁻¹. For the same variant, the “self-cleavage kobs at 40 uM GlcN6P” value with glucosamine-6-phosphate [7] came to 8.5e-05 ± 3.2e-05 s⁻¹. Further, the “self-cleavage kobs at 160 uM GlcN6P” value in the data set with glucosamine-6-phosphate [3] was determined as 0.000187 ± 5.2e-05 s⁻¹. Also, in the data set with glucosamine-6-phosphate [5], the “self-cleavage kobs at 2500 uM GlcN6P” value is 0.00159 ± 0.00063 s⁻¹. The “self-cleavage kobs at 10000 uM GlcN6P” value with glucosamine-6-phosphate [6] turned out to be 0.00376 ± 0.0012 s⁻¹.

A53G U69G: the kcat in the data set with glucosamine-6-phosphate [1] was found to be 6.03e-05 ± 8.2e-06 s⁻¹. The “self-cleavage kobs at 40 uM GlcN6P” value in the data set with glucosamine-6-phosphate [7] was 5.96e-05 ± 1e-05 s⁻¹. Besides, the “self-cleavage kobs at 160 uM GlcN6P” value with glucosamine-6-phosphate [3] turned out to be 0.000101 ± 1.8e-05 s⁻¹. Further, the “self-cleavage kobs at 640 uM GlcN6P” value with glucosamine-6-phosphate [4] came out at 6.89e-05 ± 1.2e-05 s⁻¹. The “self-cleavage kobs at 2500 uM GlcN6P” value with glucosamine-6-phosphate [5] was 5.73e-05 ± 9.6e-06 s⁻¹. For the same variant, in the data set with glucosamine-6-phosphate [6], the “self-cleavage kobs at 10000 uM GlcN6P” value was 5.13e-05 ± 8e-06 s⁻¹.

In the case of A52U A64G, the kcat with glucosamine-6-phosphate [1] turned out to be 0.000348 ± 8.9e-05 s⁻¹. In addition, the “self-cleavage kobs at 2500 uM GlcN6P” value with glucosamine-6-phosphate [5] is 0.00023 ± 3.8e-05 s⁻¹. Besides, the “self-cleavage kobs at 10000 uM GlcN6P” value with glucosamine-6-phosphate [6] came out at 0.000262 ± 3.6e-05 s⁻¹.

Consider A14U U54C, for which the kcat with glucosamine-6-phosphate [1] was 0.00754 ± 0.0024 s⁻¹. In addition, the KM in the data set with glucosamine-6-phosphate [2] was determined as 1830 ± 830 µM. In the data set with glucosamine-6-phosphate [7], the “self-cleavage kobs at 40 uM GlcN6P” value came out at 0.00021 ± 2.8e-05 s⁻¹. Besides, in the data set with glucosamine-6-phosphate [3], the “self-cleavage kobs at 160 uM GlcN6P” value is 0.000513 ± 8.8e-05 s⁻¹. Moreover, the “self-cleavage kobs at 640 uM GlcN6P” value in the data set with glucosamine-6-phosphate [4] was 0.00201 ± 0.00026 s⁻¹. Also, the “self-cleavage kobs at 2500 uM GlcN6P” value with glucosamine-6-phosphate [5] turned out to be 0.00338 ± 0.00053 s⁻¹. Moreover, the “self-cleavage kobs at 10000 uM GlcN6P” value with glucosamine-6-phosphate [6] is 0.00856 ± 0.0012 s⁻¹.

For the variant C11A A53G, the kcat with glucosamine-6-phosphate [1] stood at 0.000202 ± 9.2e-06 s⁻¹. In addition, the KM in the data set with glucosamine-6-phosphate [2] amounted to 2130 ± 240 µM. Also, the “self-cleavage kobs at 640 uM GlcN6P” value in the data set with glucosamine-6-phosphate [4] amounted to 4.47e-05 ± 1e-05 s⁻¹. In addition, the “self-cleavage kobs at 2500 uM GlcN6P” value with glucosamine-6-phosphate [5] is 0.000112 ± 1.2e-05 s⁻¹. In addition, in the data set with glucosamine-6-phosphate [6], the “self-cleavage kobs at 10000 uM GlcN6P” value came out at 0.000164 ± 1.8e-05 s⁻¹.
